Laboratory results taken from patent publication US20220315655A1.

Biological target: recombinant cynomolgus monkey PD-L1 soluble protein (cynomolgus monkey) (UniProt G7PSE7)
Assay: sandwich ELISA, antibody captured on anti-human Fc, biotinylated rec. cynomolgus PD-L1 titrated (x axis), fluorescence

Chain of recombinant cynomolgus monkey PD-L1 soluble protein (cynomolgus monkey) (G7PSE7 entry or part of it): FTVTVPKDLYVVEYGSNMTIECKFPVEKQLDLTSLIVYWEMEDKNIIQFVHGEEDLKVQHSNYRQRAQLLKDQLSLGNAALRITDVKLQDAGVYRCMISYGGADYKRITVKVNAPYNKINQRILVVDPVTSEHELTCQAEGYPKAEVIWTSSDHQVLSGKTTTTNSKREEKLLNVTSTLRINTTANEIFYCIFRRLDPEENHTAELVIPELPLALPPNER
Chain of Avelumab (antibody) (VH): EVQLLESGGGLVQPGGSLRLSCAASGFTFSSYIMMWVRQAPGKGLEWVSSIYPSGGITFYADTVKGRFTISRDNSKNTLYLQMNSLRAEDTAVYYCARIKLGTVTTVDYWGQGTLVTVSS
Chain of Avelumab (antibody) (VL): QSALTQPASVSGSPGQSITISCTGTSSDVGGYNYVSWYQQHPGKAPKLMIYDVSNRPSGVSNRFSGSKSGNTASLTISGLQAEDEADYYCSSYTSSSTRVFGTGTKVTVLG

Avelumab (antibody)
EC50 (read off the curve): 0.05 nM
